B1: His-tagged Loqs-PD, wild type [Drosophila melanogaster] / Drosophila melanogaster Dicer-2 (Dcr-2), wild type [Drosophila melanogaster] (parent complex)
chain 1: MDQENFHGSSLPQQLQNLHIQPQQASPNPVQTGFAPRRHYNNLVGLGNGNAVSGSPVKGAPLGQRHVKLKKEKISAQVAQLSQPGQLQLSDVGDPALAGGSGLQGGVGLMGVILPSDEALKFVSETDANGLAMKTPVSILQELLSRRGITPGYELVQIEGAIHEPTFRFRVSFKDKDTPFTAMGAGRSKKEAKHAAARALIDKLIGAQLPESPSSSAGPSVTGLTVAGSGGDGNANATGGGDASDKTVGNPIGWLQEMCMQRRWPPPSYETETEVGLPHERLFTIACSILNYREMGKGKSKKIAKRLAAHRMWMRLQETPIDSGKISDSICGELEGEVSIIQDIDRYEQVSKDFEFIKI
chain 2: MEDVEIKPRGYQLRLVDHLTKSNGIVYLPTGSGKTFVAILVLKRFSQDFDKPIESGGKRALFMCNTVELARQQAMAVRRCTNFKVGFYVGEQGVDDWTRGMWSDEIKKNQVLVGTAQVFLDMVTQTYVALSSLSVVIIDECHHGTGHHPFREFMRLFTIANQTKLPRVVGLTGVLIKGNEITNVATKLKELEITYRGNIITVSDTKEMENVMLYATKPTEVMVSFPHQEQVLTVTRLISAEIEKFYVSLDLMNIGVQPIRRSKSLQCLRDPSKKSFVKQLFNDFLYQMKEYGIYAASIAIISLIVEFDIKRRQAETLSVKLMHRTALTLCEKIRHLLVQKLQDMTYDDDDDNVNTEEVIMNFSTPKVQRFLMSLKVSFADKDPKDICCLVFVERRYTCKCIYGLLLNYIQSTPELRNVLTPQFMVGRNNISPDFESVLERKWQKSAIQQFRDGNANLMICSSVLEEGIDVQACNHVFILDPVKTFNMYVQSKGRARTTEAKFVLFTADKEREKTIQQIYQYRKAHNDIAEYLKDRVLEKTEPELYEIKGHFQDDIDPFTNENGAVLLPNNALAILHRYCQTIPTDAFGFVIPWFHVLQEDERDRIFGVSAKGKHVISINMPVNCMLRDTIYSDPMDNVKTAKISAAFKACKVLYSLGELNERFVPKTLKERVASIADVHFEHWNKYGDSVTATVNKADKSKDRTYKTECPLEFYDALPRVGEICYAYEIFLEPQFESCEYTEHMYLNLQTPRNYAILLRNKLPRLAEMPLFSNQGKLHVRVANAPLEVIIQNSEQLELLHQFHGMVFRDILKIWHPFFVLDRRSKENSYLVVPLILGAGEQKCFDWELMTNFRRLPQSHGSNVQQREQQPAPRPEDFEGKIVTQWYANYDKPMLVTKVHRELTPLSYMEKNQQDKTYYEFTMSKYGNRIGDVVHKDKFMIEVRDLTEQLTFYVHNRGKFNAKSKAKMKVILIPELCFNFNFPGDLWLKLIFLPSILNRMYFLLHAEALRKRFNTYLNLHLLPFNGTDYMPRPLEIDYSLKRNVDPLGNVIPTEDIEEPKSLLEPMPTKSIEASVANLEITEFENPWQKYMEPVDLSRNLLSTYPVELDYYYHFSVGNVCEMNEMDFEDKEYWAKNQFHMPTGNIYGNRTPAKTNANVPALMPSKPTVRGKVKPLLILQKTVSKEHITPAEQGEFLAAITASSAADVFDMERLEILGDSFLKLSATLYLASKYSDWNEGTLTEVKSKLVSNRNLLFCLIDADIPKTLNTIQFTPRYTWLPPGISLPHNVLALWRENPEFAKIIGPHNLRDLALGDEESLVKGNCSDINYNRFVEGCRANGQSFYAGADFSSEVNFCVGLVTIPNKVIADTLEALLGVIVKNYGLQHAFKMLEYFKICRADIDKPLTQLLNLELGGKKMRANVNTTEIDGFLINHYYLEKNLGYTFKDRRYLLQALTHPSYPTNRITGSYQELEFIGDAILDFLISAYIFENNTKMNPGALTDLRSALVNNTTLACICVRHRLHFFILAENAKLSEIISKFVNFQESQGHRVTNYVRILLEEADVQPTPLDLDDELDMTELPHANKCISQEAEKGVPPKGEFNMSTNVDVPKALGDVLEALIAAVYLDCRDLQRTWEVIFNLFEPELQEFTRKVPINHIRQLVEHKHAKPVFSSPIVEGETVMVSCQFTCMEKTIKVYGFGSNKDQAKLSAAKHALQQLSKCDA

This is an account of results in publication PMC9279154 (Nature, 2022).

The variants in the experiment derive from B1. As to the kind of experiment: pull-down; parent: 1; read off a plot.
As to chain 1 Y347A, the ratio to parent is approximately 0.1.

For the variant chain 1 F356D, the ratio to parent is approximately 0.06.

For the variant chain 1 I359D, the ratio to parent was approximately 0.04.
